Results: patent publication US11407811B2, “Fusion protein, preparation method therefor and use thereof” (JIANGSU RONGTAI BIOTECH CO., LTD., priority 2017, dated 2022)

Tests used:
liver cancer cell Hep-G2 = experiment: MTT assay, proliferation of liver cancer cell Hep-G2; format: cell-based
Experimental: The MTT assay was used to detect the inhibitory effect of the integrin blocker fusion protein obtained in Example 1 on the proliferation of various tumor cells, including melanoma cell B16F10, gastric cancer cell MGC-803, lung cancer cell A549, liver cancer cell Hep-G2, breast cancer cell MDA-MB-231, colon cancer cell HCT-116, human glioma U87, and cervical cancer cell Hela.
The tumor cells were cultured in a 5% CO2 incubator at 37° C. to a density of 90% or more, and collected by trypsinization. The cells were resuspended in the culture liquid and counted under a microscope. The cell concentration was adjusted to 3.0×10^4 cells/mL. The cell suspension was inoculated into a 96-well plate at 100 μL per well and cultured overnight in a 5% CO2 incubator at 37° C. […] After the cells were fully adhered, each dilution was added to a 96-well plate at 100 μL per well, respectively. […] 20 μL of 5 mg/mL MTT was added to each well of a 96-well plate, and incubation was continued for 4 hours. The medium was aspirated and 100 μL of DMSO per well were added to dissolve. The absorbance was measured at 570 nm with a microplate reader with a reference wavelength of 630 nm, and the proliferation inhibition (PI) was calculated. The formula is as follows: […]
where Ntest is the OD value of the test group and Ncontrol is the OD value of the blank control group.
The test was repeated 5 times independently. The results obtained from the test were calculated as mean±SD, and statistical t-test was performed. P<0.05 was considered as a significant difference, and P<0.01 was considered as an extremely significant difference.

[1] = system: angiogenesis of chicken embryo chorioallantoic membrane; experiment: Chicken embryo chorioallantoic membrane (CAM) angiogenesis assay; format: in vivo; settings: for Blood vessel number / PI: CAM, 72 hours
Excerpt: In this study, CAM assay was used to investigate the activity of fusion protein I, protein II, protein III, protein IV, and protein V to inhibit angiogenesis in vivo. The study has shown that the biosynthesis rate of collagen reached the maximum on the 8th to 11th day of chicken embryo development, which was the most vigorous stage of angiogenesis, and the body's immune system had not yet been fully established at that time, and thus the chicken embryos developed to the 8th day was selected to be administered. […] The following steps were used.
(1) The White Leghorn chicken embryos on day 6 were cultured in a 37° C. incubator at 60%-70% humidity for two days.
(2) A 1.0 cm×1.0 cm window was drilled above the chicken embryo air sac, and the inner membrane was torn off with forceps to expose the chorioallantoic membrane. Lens paper having a diameter of 5 mm was used as a loading carrier, and was placed on the chorioallantoic membrane of the chicken embryo air sac. Filter paper with PBS was used as a blank group, and the administration group was added with different doses of fusion protein.
(3) The chicken embryo air sac was sealed with a sterile transparent tape, and after culturing at 37° C. for 72 hours, the chicken embryo air sac was opened, and a fixative (formaldehyde:acetone=1:1) was added for fixation for 15 minutes. The chorioallantoic membrane to which the lens paper was adhered was taken out, the distribution of the new blood vessels was observed, and the new blood vessels were counted and photographed. Five replicates were set for each dose and the results were statistically analyzed.

[2] = system: corneal neovascularization in mice; experiment: Corneal neovascularization induced by alkali burn in BALB/c mice (MVD, CD31); format: in vivo
Excerpt: 15 healthy male BALB/c mice with weight of 20-25 g were examined under a slit lamp microscope for the anterior segment of both eyes and the appendage to exclude ocular lesions. The eyes were given 0.3% loxacin eye drops 1 day before the preparation of alkali burn model, twice a day. After the mice were anesthetized by intraperitoneal injection of 1.8% Avertin, single-layer filter paper with a diameter of 2 mm was clamped with tweezers, and immersed in a 1 mol/L sodium hydroxide solution to reach a saturated state, and the excess liquid was removed. […]
15 mice were randomly divided into […], with 5 rats in each group. […] On day 14 after alkali burn, the neovascularization of the corneal in each group was photographed and recorded under the slit lamp microscope for photographing anterior segment of the eye. […] The blood was washed with physiological saline, and the eyeballs were fixed in 4% paraformaldehyde for 1.5 h, dehydrated in PBS containing 30% sucrose overnight, embedded in an OCT tissue freezing medium, stored in a refrigerator at −80° C., subjected to cryosection at […] and detected by immunohistochemistry for CD31 expression.
Microvessel density (MVD) is an indicator for evaluating angiogenesis. […] The number of new blood vessels in the entire section was counted under a 10×20 microscope. […]

B1: Protein II: IgG2-Fc linked to antiangiogenesis polypeptide EDSM-Y via a flexible linker; SEQ ID NO: 17 (protein)
chain: ERKCCVECPPCPAPPVAGPSVFLFPPKPKDTLMISRTPEVTCVVVDVSHEDPEVQFNWYVDGVEVHNAKTKPREEQFNSTFRVVSVLTVVHQDWLNGKEYKCKVSNKGLPAPIEKTISKTKGQPREPQVYTLPPSREEMTKNQVSLTCLVKGFYPSDISVEWESNGQPENNYKTTPPMLDSDGSFFLYSKLTVDKSRWQQGNVFSCSVMHEALHNHYTQKSLSLSPGKGGGGSGGGGSGGGGSFQPVLHLVALNSPLSGGMRGIRGADFQCFQQARAVGLAGTFRAGGGGRGD
Liver cancer cell Hep-G2; dose 1 μg/mL
  A570 nm/A630 nm: 0.6746 ± 0.0372
  PI (%): 1.49%
Liver cancer cell Hep-G2; dose 2 μg/mL
  A570 nm/A630 nm: 0.6132 ± 0.0253
  PI (%): 10.46%
Liver cancer cell Hep-G2; dose 4 μg/mL
  A570 nm/A630 nm: 0.5799 ± 0.0396
  PI (%): 15.32%
Liver cancer cell Hep-G2; dose 8 μg/mL
  A570 nm/A630 nm: 0.5499 ± 0.0215
  PI (%): 19.70%
Liver cancer cell Hep-G2; dose 16 μg/mL
  A570 nm/A630 nm: 0.5190 ± 0.0185
  PI (%): 24.21%
Liver cancer cell Hep-G2; dose 32 μg/mL
  A570 nm/A630 nm: 0.4706 ± 0.0374
  PI (%): 31.28%
Liver cancer cell Hep-G2; dose 64 μg/mL
  A570 nm/A630 nm: 0.4256 ± 0.0268
  PI (%): 37.85%
Liver cancer cell Hep-G2; dose 128 μg/mL
  A570 nm/A630 nm: 0.3801 ± 0.0174
  PI (%): 44.49%
Liver cancer cell Hep-G2; dose 256 μg/mL
  A570 nm/A630 nm: 0.3156 ± 0.0151
  PI (%): 53.91%
Liver cancer cell Hep-G2; in words
  inhibitory effect on liver cancer cell Hep-G2: a certain inhibitory effect
[1]; 8 μg
  Blood vessel number: 102 ± 10
  PI: 17.07%
[1]; 32 μg
  Blood vessel number: 83 ± 11
  PI: 32.52%
[1]; 128 μg
  Blood vessel number: 66 ± 7
  PI: 46.34%
[1]; high dose
  inhibitory effect on angiogenesis of CAM: ~50%
[2]; compared with the control group
  number of CD31-positive new blood vessels: significantly reduced
[2]; dose 64 μg, intravitreal injection, day 14 after alkali burn
  MVD: 24.64 ± 4.24
